Measurements as given in the nanobody polyreactivity screen of Harvey et al. (2022).

Assay: yeast display, Sf9 membrane polyspecificity reagent, FACS + sequencing; frameworks hold sequencing errors
How it was run: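 Nanobodies came from a synthetic yeast display library in Saccharomyces cerevisiae BJ5465, induced with galactose for 36–48 hours and stained for 1 hour at 4 °C with 10% biotinylated, detergent-solubilized Sf9 membrane reagent. Cells were enriched on streptavidin microbeads and then FACS-sorted, with low and high (top ~1%) gates set on anti-HA fluorescence for expression and streptavidin fluorescence for reagent binding. Each polyreactivity label reflects the gate a clone came from. Genes were amplified by colony PCR, sequenced by MiSeq 2 × 250 and filtered by CDR length.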

Row | Sequence | polyreactivity (PSR sort gate)
1 | QVQLVESGGGLVQAGGSLRLSCAASGRTLHYYAMGWYRQAPGKERELVAAISRTGSTDYADSVKGRFTISRDNAKNTVYLQMNSLKPEDTAVYYCAAYYRYRSGRYYYWGQGTQVTVSS | high polyreactivity
2 | QVQLVESGGGLVQAGGSLRLSCAASGRTLIYNAMGWYRQAPGKERELVAAITGGGGRTYYADSVKGRFTISRDNAQNTVYLQMNSLKPEDTAVYYCAAGETFEMNYWGQGTQVTVSS | low polyreactivity
3 | QVQLVESGGGLVQAGGSLRLSCAASGRTLKWYAMGWDRQAPGKERELVAAISWSGGSTYYADSVKGRFTISRDNAKNTVYLQMNSLKPEDTSVYYCAVAVTSYSSKKLYYWGQGTQVTVSS | low polyreactivity
4 | QVQLVESGGGLVQAGGSLRLSCAASGRTLKYNAMGWYRQAPGKERELVAAISYSGSSTYYADSVNGRFTISRDKAKHTVYLQMNSLKPEDTEVYYCNTARPTAAYDYWGQGTQVTVSS | low polyreactivity
5 | QVQLVESGGGLVQAGGSLRLSCAASGRTLLYYAMGWYRQAPGKERELVAAISRSGGSTSYADSVKGRFTISRDNAKNTVYLQMNSLKPEDTAVYYCNAPRYYYWGQGTQVTVSS | high polyreactivity
6 | QVQLVESGGGLVQAGGSLRLSCAASGRTLPGYVMGWYRQEPGKERELVSTISSGDRTNYADSVKGRFTISRDNAKNTVYLQMNSLKPEETAVYYCAAPYVASGYYIWSPWLYDSWGQGTQVTVSS | low polyreactivity
7 | QVQLVESGGGLVQAGGSLRLSCAASGRTLPVYAMGWYRQAPGKERELVAAITYSGGSTSYADYVKGRFTISRDNAKNTVYLQMNTLKPDDTAVYYCAAGYRYSEYYYWGQGTQVTVSS | low polyreactivity
8 | QVQLVESGGGLVQAGGSLRLSCAASGRTLQGYAMGWYRQAPGKERELVAAISRGGGSTYADSVKGRFTISRDNAKNTVYLQMNSLKPEDTAVYYCAAVRGIYGGHYFRYEYWGQGTQVTVSS | high polyreactivity
9 | QVQLVESGGGLVQAGGSLRLSCAASGRTLQRNAMGWYRQAPGKERELVADISWSGASTYYADSVKGRFTISRDNAKNTVYLQMNSLKPEDTAVYYCAATYIDRGNIYDYWGQGTQVTVSS | high polyreactivity
10 | QVQLVESGGGLVQAGGSLRLSCAASGRTLQWNAMGWYRQAPGKERELVATISSGGSTKYADSVKGRFTISRDNAKNTVYLQMNSLKPEDTAVYYCNAQPFGMYYHRYYYWGQGTQVTVSS | low polyreactivity
11 | QVQLVESGGGLVQAGGSLRLSCAASGRTLRKYAMGWYRQAPGKERELVAAISSSGGNTYYADSVKGRFTISRDNAKNTVYLQMNSLKPEDTAVYYCAAGFYYPTARVGYYYWGQGTQVTVSS | high polyreactivity
12 | QVQLVESGGGLVQAGGSLRLSCAASGRTLRTYAMGWYRQAPGKERELVAAITSSGGRTYYADSVKGRFTISRDNAKNTVYLQMNSLKPEDTAVYYCAAARYYYGGDYWGQGTQVTVSS | high polyreactivity
13 | QVQLVESGGGLVQAGGSLRLSCAASGRTLRTYTMGWYRQAPGKERELVAAISSSDDSTYYADSVKGRFTISRDNEKNTVYLQMNSLKPEDNAVYSCAKDGLYPTEYGYWGQGTQVTVSS | high polyreactivity
14 | QVQLVESGGGLVQAGGSLRLSCAASGRTLRYYAMGWYRQAPGKERELVAAISRRGGRTYYADSVKGRFTISRDNAKNTVYLQMNSLKPEDTAVYYCNARYDVYRWRYDYDYWGQGTQVTVSS | high polyreactivity
15 | QVQLVESGGGLVQAGGSLRLSCAASGRTLSHYAMGWYRQAPGKERELVAAISQSGGSTRYADSVKGRFTISRDNAKNTVYLQMISLKPEDTAVYYCAVRQLYSYPGDRRGYYWGQGTQVTVSS | high polyreactivity
16 | QVQLVESGGGLVQAGGSLRLSCAASGRTLSRNAMGWYRQAPGKERELVAAINYSGGITYYADSVKGRFTISRDNAKNTVYLQMNSLKPEDTAVYYCAATVKYWGQGTQVTVSS | high polyreactivity
17 | QVQLVESGGGLVQAGGSLRLSCAASGRTLSVNAMGWYRQAPGKERELVAAITWGGGSTYYADSVKGRFTISRDNAKNTVYLQMNSLKPEDTAVYYCNADPGWTELEYDYWGQGTQVTVSS | low polyreactivity
18 | QVQLVESGGGLVQAGGSLRLSCAASGRTLSYNTMGWYRQAPGKEREFVAANTWSGGSTNYADSVKGRFTISRDNAKNTVYLQMNSLKPEDTAVYYCNADYLTVSWSIPEHVTVRLMYYWGQGTQVTVSS | low polyreactivity
19 | QVQLVESGGGLVQAGGSLRLSCAASGRTLTGNAMGWYRQAPGKERELVAAISWSAGSTYYADSVKGRFTISRDNAKNTVYLQMNSLKPEDTAVYYCALTLRRNLVRMGYWGLGTQVTVSS | high polyreactivity
20 | QVQLVESGGGLVQAGGSLRLSCAASGRTLTQYAMGWYRQAPGTERELVAAINTSGDSTYYADSVKGRFTISRDNAKNTVYLQMNSLKPEDTAVYYCAADGFWSQLYHLYNGYDYWGQGTQVTVSS | low polyreactivity
21 | QVQLVESGGGLVQAGGSLRLSCAASGRTLVPYAMGWYRQAPGKERELVAAINSSGGSTYYADSVKGRFTISRDNAKNTVYLQMNSLKPEDTAVYYCAATRYSKYYWGQGTQVTVSS | high polyreactivity
22 | QVQLVESGGGLVQAGGSLRLSCAASGRTLVTNAMGWYRQAPGKERELVAAIDSDDGTTYYADSVKGRFTISRDNAKKTVYLQMNSLKPEDTAVYYCAAESYWRDDYWGQGTQVTVSS | low polyreactivity
23 | QVQLVESGGGLVQAGGSLRLSCAASGRTLWSYTMGWYRQAPGKERELVARITIGGSTNYADSVKGRFTISRDNAKNTVYLQMNSLKPEDTAVYYCNARASYSYGSYLSKSYGFDYWGQGTQVTVSS | high polyreactivity
24 | QVQLVESGGGLVQAGGSLRLSCAASGRTLYGNVMGWYRQAPGKERELVAAISRRGGSTSYADSVKGRFTISRDNAKNTVYLQMNSLKPEDTAVYYCAAGRQRYAFKYYYWGQGTQVTVSS | high polyreactivity
25 | QVQLVESGGGLVQAGGSLRLSCAASGRTLYHNAMGWYRQAPGKERELVAAISYRGTRTYYADSVKGRFTISRDKAKNTVYLQKNSLTPEDTAVYYCAADTTYATKSDYWGQGTQVTVSS | high polyreactivity
26 | QVQLVESGGGLVQAGGSLRLSCAASGRTLYPYAMGWYRQAPGKERELVAAISSTGGRTYYADSVKGRFTISRDNAKNTVYLQMNSLKPEDTAVYYCAAIYRAQYDYWGQGTQVTVSS | high polyreactivity
27 | QVQLVESGGGLVQAGGSLRLSCAASGRTLYRNAMGWYRQSPWKDREFVSRITWSGASTYYADSVKGRFTISRDNAKNTVYLQMNSLKPEDTAVYYCAAQYLSRRYGPYYTYNYWGQGTQVTVSS | high polyreactivity
28 | QVQLVESGGGLVQAGGSLRLSCAASGRTLYYKAMGWYRQAPGKERELVAAISRSGGSTYYADSVKGRFTISRDNAKNTVYLQMNSLKPEDTAVYYCAVLPSYTSWESSDYWGQGTQVTVSS | high polyreactivity
29 | QVQLVESGGGLVQAGGSLRLSCAASGRTLYYNTMGWYRQAPGKERELVASIRWDGGSTNYADSVNGRFTISRDNAKNTVYLQMNSLKPEDTAVYYCNADPGWTELEYDYWGQGTQVTVSS | low polyreactivity
30 | QVQLVESGGGLVQAGGSLRLSCAASGRTMWAYSMGWYRPAHGKERELVAAITGSGGSTYYADSVKGRFTISRDNAKNTVYLQMNSLKPEDTAVYYCAAYSRTLHYDSWGQGTHVTVSS | high polyreactivity
